pKd: −log10 of the molar value.

We go through 4 substances from paper PMC9123187.

For data set [1], the target named is Cas7d, backbone subunit of type I-D Cascade (Synechocystis). The experiment in a line: cryo-EM structure; type I-D Cascade (co-expressed subunits with crRNA, purified as a complex) bound to a dsDNA target with GTT PAM, 1:2 Cascade:target, 30 °C 30 min; 2.9 Å.
Data set [2] deals with Cas11d, small subunit of type I-D Cascade (Synechocystis). Described as above.
The target of data set [3] is Type I-D Cascade WT (assay sample) (Synechocystis) (UniProt Q6ZEI7+Q6ZEI6+Q6ZEI5+Q6ZEI7). Briefly: EMSA. To be noted: EMSA: 10 mM HEPES-NaOH pH 7.5, 100 mM KCl, 5% glycerol, 1 mM DTT, 0.01% Triton X-100, 1 µg BSA, 0.1 µg poly(dI.dC) (dsDNA) or 0.26 µg E. coli tRNA (ssRNA) in …. (In general: Mobility shift assays separate free from complexed probe on a gel.)

In turn, “Cas7d, backbone subunit of type I-D Cascade (natural protein)” gave a stoichiometry N in data set [1] of 7.
In data set [2], “Cas11d, small subunit of type I-D Cascade (natural protein)” displayed a stoichiometry N of 2.
On to “GCAUGACGGAUCGAGGCAUUGAAAGCGACCGCCAGGGGCACAACAAUCAACGUGAUACUA / ACUGAAACGAUUGUUGUGCCCCUGGCGGUCGCUUUCAAUGCCU [PF3167 AAC-PFS ssRNA + crRNA]”, for which the pKd in data set [3] was 7.96.
On the same count and under the same terms, to “GCAUGACGGAUCGAGGCAUUGAAAGCGACCGCCAGGGGCACAACAAUCACGGUGAUACUA / ACUGAAACGAUUGUUGUGCCCCUGGCGGUCGCUUUCAAUGCCU [PF5591 ACG-PFS ssRNA + crRNA]” belongs 7.96.

Usually stoichiometry N stands for the number of molecules, sites or subunits per partner or assembly. For orientation: pKd means the Kd on a negative log10 scale, so that one unit is a factor of ten.
